Data reported in PMC12888920, “MMP-9 regulates disulphide isomerase activity of TGM2 to enhance fusion glycoprotein-mediated syncytium formation of respiratory syncytial virus” (Protein & Cell, 2025).

Experiments:
TGM2 = target: T1, TGM2 (Homo sapiens, UniProt P21980); assay: Biolayer interferometry, MMP-9 binding to TGM2; conditions: BLI, purified human proteins, TGM2 immobilized; read-out: dissociation constant (KD), MMP-9 to TGM2
T1 construct: His tag (inferred from capture on anti-penta-HIS biosensors); purchased MCE (MedChemExpress)
T1 sequence (P21980 1-687): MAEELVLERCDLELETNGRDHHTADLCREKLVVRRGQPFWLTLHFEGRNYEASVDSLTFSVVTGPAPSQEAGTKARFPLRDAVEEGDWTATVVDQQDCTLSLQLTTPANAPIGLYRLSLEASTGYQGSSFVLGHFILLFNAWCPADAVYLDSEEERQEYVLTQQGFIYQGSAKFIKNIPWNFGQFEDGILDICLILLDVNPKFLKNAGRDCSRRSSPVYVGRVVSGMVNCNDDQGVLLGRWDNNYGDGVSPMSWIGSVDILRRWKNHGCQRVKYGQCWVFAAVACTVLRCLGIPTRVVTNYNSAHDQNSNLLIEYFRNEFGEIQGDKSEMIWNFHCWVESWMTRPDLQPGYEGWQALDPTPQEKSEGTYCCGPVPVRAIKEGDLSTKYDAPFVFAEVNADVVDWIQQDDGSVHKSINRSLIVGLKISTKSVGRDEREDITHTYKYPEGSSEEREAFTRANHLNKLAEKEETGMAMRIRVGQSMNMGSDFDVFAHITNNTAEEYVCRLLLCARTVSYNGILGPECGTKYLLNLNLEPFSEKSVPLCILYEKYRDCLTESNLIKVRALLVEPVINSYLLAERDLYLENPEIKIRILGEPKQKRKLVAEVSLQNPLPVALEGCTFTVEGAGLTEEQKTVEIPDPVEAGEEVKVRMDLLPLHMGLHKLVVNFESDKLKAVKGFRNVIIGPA
Method: Figure 6. MMP-9 cleaves TGM2 to potentiate RSV infection. (A) MMP-9–TGM2 interaction. […] Blots represent three independent experiments. (D) Infection-enhanced cleavage. MMP-9-dependent TGM2 proteolysis in HEp-2 cells transfected with HA-TGM2 and siMMP-9, followed by RSV A2 infection (MOI = 1, 72 hpi). TGM2 fragment band intensity was quantified by ImageJ software (gray values). Blots represent three independent experiments. (E) Enzymatic validation. MMP-9 proteolytic activity was measured using fluorogenic substrate Mca-PLGL-Dpa-AR-NH2. The results represent three biological replicates. (F) In vitro cleavage assay. Recombinant TGM2 (2 µg) was incubated with APMA-activated MMP-9 (0.2 µg) for 18 h (37°C, pH 7.5). Cleavage products resolved by SDS-PAGE (10%). Arrows indicate proteolytic fragments. The results represent three biological replicates. (G) Functional rescue. Viral titers (FFA) in HEp-2 cells overexpressing MMP-9, TGM2, or cleavage-resistant mutant (TGM2-P375A) post RSV infection (MOI = 1, 72 hpi). mean ± SD, n = 3. (H) Syncytium rescue. Syncytia area quantification in MMP-9/TGM2-modulated cells (ImageJ software). mean ± SD, n = 3. […]
(§1) 271 TGM2) were quantified using a Sartorius Octet R4 system. […]
(§2) 275 equilibration. MMP-9 (MCE) binding was assessed across two concentration ranges: […]
(§3) 281 (Sartorius) at 20 µg/mL. TGM2 binding was evaluated across 0 –100 µM (7 […]

RSV F protein (DS-Cav1) = assay: Biolayer interferometry, MMP-9 binding to RSV F protein (DS-Cav1); set-up: species or system Respiratory syncytial virus; conditions: BLI, DS-Cav1 immobilized; read-out: dissociation constant (KD), MMP-9 to RSV F
Method: Figure 4. MMP-9 interacts with RSV F protein. (A) MMP-9–F protein interaction analysis. HEK293T cells co-transfected with MMP-9 and RSV F plasmids (48 h) were subjected to co-immunoprecipitation (Co-IP) using anti-F, anti-MMP-9, or IgG control antibodies, followed by immunoblotting with indicated probes. Blots represent three independent experiments. (B) Binding affinity quantification. Biolayer interferometry (BLI) assays using ForteBio Octet measured DS-Cav1 (RSV F prefusion conformation) and MMP-9 interactions. The results represent three biological replicates. (C) Subcellular co-localization. Confocal microscopy of HEp-2 cells transfected with MMP-9 (24 h) ± RSV A2 infection (MOI = 1, 72 hpi). Nuclei (DAPI), MMP-9, and RSV F signals are shown. Scale bar: 20 µm. Images represent three biological replicates. (D) No effect on F protein proteolytic processing. Western blot of RSV F cleavage status in HEK293T cells co-expressing MMP-9 (100–500 ng) and RSV F (500 ng) for 48 h. β-Actin served as loading control. Blots represent three independent experiments. […] They were left out and are not reliably readable. […]
as §1, §2, §3

B1: MMP-9: recombinant matrix metalloproteinase 9 protein used as analyte in BLI (protein)
chain: APRQRQSTLVLFPGDLRTNLTDRQLAEEYLYRYGYTRVAEMRGESKSLGPALLLLQKQLSLPETGELDSATLKAMRTPRCGVPDLGRFQTFEGDLKWHHHNITYWIQNYSEDLPRAVIDDAFARAFALWSAVTPLTFTRVYSRDADIVIQFGVAEHGDGYPFDGKDGLLAHAFPPGPGIQGDAHFDDDELWSLGKGVVVPTRFGNADGAACHFPFIFEGRSYSACTTDGRSDGLPWCSTTANYDTDDRFGFCPSERLYTQDGNADGKPCQFPFIFQGQSYSACTTDGRSDGYRWCATTANYDRDKLFGFCPTRADSTVMGGNSAGELCVFPFTFLGKEYSTCTSEGRGDGRLWCATTSNFDSDKKWGFCPDQGYSLFLVAAHEFGHALGLDHSSVPEALMYPMYRFTEGPPLHKDDVNGIRHLYGPRPEPEPRPPTTTTPQPTAPPTVCPTGPPTVHPSERPTAGPTGPPSAGPTGPPTAGPSTATTVPLSPVDDACNVNIFDAIAEIGNQLYLFKDGKYWRFSEGRGSRPQGPFLIADKWPALPRKLDSVFEERLSKKLFFFSGRQVWVYTGASVLGPRRLDKLGLGADVAQVTGALRSGRGKMLLFSGRRLWRFDVKAQMVDPRSASEVDRMFPGVPLDTHDVFQYREKAYFCQDRFYWRVSSRSELNQVDQVGYVTYDILQCPED
Kd (TGM2): 1980 nM
Kd (RSV F protein (DS-Cav1)): 146 nM
